Experimental data reported in patent EP4631972A1, “SITE-SPECIFIC COUPLED PEGYLATED INTERLEUKIN-2 MUTANT WITH RECEPTOR AFFINITY PREFERENCE AND USE THEREOF” (priority 2022, dated 2024).
Numbered stars: 1 amine (or outer) side, 2 acyl side, 3 side chain; on linkers, the order of the positions; unused ones are H or OH. Square brackets hold non-standard residues; d marks the D form. Prk = N-ε-propargyloxycarbonyl-L-lysine, C#CCOC(=O)NCCCC[C@H](N[*:1])C(=O)[*:2]

T1: IL-2Rαβγ triple receptor (UniProt P01589 22-272; P14784 27-551; P31785 23-369)
T1 sequence (looked up) 1: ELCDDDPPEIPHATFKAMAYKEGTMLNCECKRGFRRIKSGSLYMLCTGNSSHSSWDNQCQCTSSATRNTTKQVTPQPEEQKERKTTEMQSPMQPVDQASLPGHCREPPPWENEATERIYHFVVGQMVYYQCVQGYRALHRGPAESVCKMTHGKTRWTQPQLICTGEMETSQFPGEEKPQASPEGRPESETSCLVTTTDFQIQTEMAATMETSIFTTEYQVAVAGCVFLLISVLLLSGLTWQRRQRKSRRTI
T1 sequence (looked up) 2: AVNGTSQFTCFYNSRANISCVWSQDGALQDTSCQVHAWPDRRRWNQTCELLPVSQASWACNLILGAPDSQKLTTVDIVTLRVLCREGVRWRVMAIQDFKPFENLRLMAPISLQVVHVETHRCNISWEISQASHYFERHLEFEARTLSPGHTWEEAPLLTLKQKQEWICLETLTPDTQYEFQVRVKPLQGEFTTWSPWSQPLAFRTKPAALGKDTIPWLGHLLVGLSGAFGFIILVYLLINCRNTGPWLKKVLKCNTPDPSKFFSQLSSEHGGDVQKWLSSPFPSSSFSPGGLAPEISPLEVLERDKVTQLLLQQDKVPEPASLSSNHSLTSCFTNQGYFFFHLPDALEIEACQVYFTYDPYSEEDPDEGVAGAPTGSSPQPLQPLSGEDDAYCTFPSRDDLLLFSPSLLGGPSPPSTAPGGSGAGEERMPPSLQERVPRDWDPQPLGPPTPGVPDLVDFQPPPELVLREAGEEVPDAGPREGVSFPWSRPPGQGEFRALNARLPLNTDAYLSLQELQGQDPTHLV
T1 sequence (looked up) 3: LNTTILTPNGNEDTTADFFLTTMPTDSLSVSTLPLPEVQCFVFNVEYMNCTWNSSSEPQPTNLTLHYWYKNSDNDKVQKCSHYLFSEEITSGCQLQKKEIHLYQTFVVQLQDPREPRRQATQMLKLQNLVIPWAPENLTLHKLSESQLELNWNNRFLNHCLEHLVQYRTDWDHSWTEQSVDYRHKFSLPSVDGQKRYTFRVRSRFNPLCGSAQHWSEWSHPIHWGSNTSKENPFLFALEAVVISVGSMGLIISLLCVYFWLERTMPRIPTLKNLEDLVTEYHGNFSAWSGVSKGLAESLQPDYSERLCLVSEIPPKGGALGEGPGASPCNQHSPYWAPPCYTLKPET

T2: IL-2βγ dual receptor (Homo sapiens, UniProt P14784+P31785)
T2 construct: Uniprot P14784 1Met-551Val was constructed into plasmid pcDNA3.1(+); Uniprot P31785 1Met-551Thr was constructed into plasmid pcDNA3.1/zeo; expressed in transfected cells; host or cells: 293EC18 cells, transient co-transfection with pCMV/JAK3 and PGL4.52/STAT5RE
T2 sequence (P14784 27-551): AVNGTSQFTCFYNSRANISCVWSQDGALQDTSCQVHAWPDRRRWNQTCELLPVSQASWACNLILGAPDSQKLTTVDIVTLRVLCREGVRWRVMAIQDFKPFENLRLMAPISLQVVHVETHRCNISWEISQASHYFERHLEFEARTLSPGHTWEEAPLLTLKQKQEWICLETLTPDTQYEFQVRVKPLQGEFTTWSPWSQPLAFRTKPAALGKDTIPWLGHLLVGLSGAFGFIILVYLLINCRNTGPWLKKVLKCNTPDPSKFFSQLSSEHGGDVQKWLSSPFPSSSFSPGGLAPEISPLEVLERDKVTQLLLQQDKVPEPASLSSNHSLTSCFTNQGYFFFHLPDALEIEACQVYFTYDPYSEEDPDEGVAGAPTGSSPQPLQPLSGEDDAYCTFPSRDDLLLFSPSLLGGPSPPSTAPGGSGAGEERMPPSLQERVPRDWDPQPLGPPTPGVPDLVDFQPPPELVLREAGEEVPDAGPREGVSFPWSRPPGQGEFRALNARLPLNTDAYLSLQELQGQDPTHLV
T2 sequence (P31785 23-369): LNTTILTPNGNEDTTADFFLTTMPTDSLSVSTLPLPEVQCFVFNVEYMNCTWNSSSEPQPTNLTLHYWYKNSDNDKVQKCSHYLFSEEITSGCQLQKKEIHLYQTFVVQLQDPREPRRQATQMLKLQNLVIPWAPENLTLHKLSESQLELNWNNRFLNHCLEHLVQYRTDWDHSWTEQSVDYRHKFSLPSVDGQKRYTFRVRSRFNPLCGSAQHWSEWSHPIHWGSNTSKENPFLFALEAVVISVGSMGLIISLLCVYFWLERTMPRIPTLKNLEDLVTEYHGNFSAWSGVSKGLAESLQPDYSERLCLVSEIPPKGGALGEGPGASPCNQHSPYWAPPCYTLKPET


The molecules below were run against T1, IL-2Rαβγ triple receptor (assay: cell-based or functional assay). Conditions: not given.

Activation of IL-2αβγ receptor EC50 (STAT5 luciferase reporter gene assay) | Molecule
0.443 nM | 40k-1PEG-IL2-N88R-N33Prk (ligand) APTSSSTKKTQLQLEHLLLDLQMILNGINNYK[Prk](PEG‑azide 40 kDa)PKLTRMLTFKFYMPKKATELKHLQCLEEELKPLEEVLNLAQSKNFHLRPRDLISRINVIVLELKGSETTFMCEYADETATIVEFLNRWITFSQSIISTLT
0.517 nM | 40k-1PEG-IL2-N88R-N77Prk (ligand) APTSSSTKKTQLQLEHLLLDLQMILNGINNYKNPKLTRMLTFKFYMPKKATELKHLQCLEEELKPLEEVLNLAQSK[Prk](PEG‑azide 40 kDa)FHLRPRDLISRINVIVLELKGSETTFMCEYADETATIVEFLNRWITFSQSIISTLT
0.368 nM | 60k-1PEG-IL2-N88R-N33Prk (ligand) APTSSSTKKTQLQLEHLLLDLQMILNGINNYK[Prk](PEG 60 kDa)PKLTRMLTFKFYMPKKATELKHLQCLEEELKPLEEVLNLAQSKNFHLRPRDLISRINVIVLELKGSETTFMCEYADETATIVEFLNRWITFSQSIISTLT
0.323 nM | 20k-1PEG-IL2-N88R-N33Prk (ligand) APTSSSTKKTQLQLEHLLLDLQMILNGINNYK[Prk](PEG‑azide 20 kDa)PKLTRMLTFKFYMPKKATELKHLQCLEEELKPLEEVLNLAQSKNFHLRPRDLISRINVIVLELKGSETTFMCEYADETATIVEFLNRWITFSQSIISTLT
0.417 nM | 60k-1PEG-IL2-N88R-N77Prk (ligand) APTSSSTKKTQLQLEHLLLDLQMILNGINNYKNPKLTRMLTFKFYMPKKATELKHLQCLEEELKPLEEVLNLAQSK[Prk](PEG 60 kDa)FHLRPRDLISRINVIVLELKGSETTFMCEYADETATIVEFLNRWITFSQSIISTLT
0.361 nM | 20k-1PEG-IL2-N88R-N77Prk (ligand) APTSSSTKKTQLQLEHLLLDLQMILNGINNYKNPKLTRMLTFKFYMPKKATELKHLQCLEEELKPLEEVLNLAQSK[Prk](PEG‑azide 20 kDa)FHLRPRDLISRINVIVLELKGSETTFMCEYADETATIVEFLNRWITFSQSIISTLT

The molecules below were run against T2, IL-2βγ dual receptor (assay: STAT5 reporter gene assay, activation of IL-2βγ dual receptor in 293EC18/βγ/JAK3/STAT5 cells). Conditions: Figure 1, concentration of 65.2 nM.
Type: cell-based
Experimental: Since the binding of IL-2 to the β and γ subunits of its receptor induces STAT5 phosphorylation, which subsequently leads to dimerization and translocation into the nucleus to promote target gene transcription, this example evaluates the ability of the mutant IL-2 polypeptides to induce signaling through the IL-2 receptor by measuring STAT5 phosphorylation.
Adherent 293EC18 cells were cultured to about 90% confluence using conventional methods. After trypsin digestion, the cells were resuspended in cell culture medium to 4×10^5 cells/ml and 50 µl/well were added to two 96-well cell culture plates. After incubation at 37°C for 48 h, the supernatant was aspirated and fresh culture medium was added. According to the manufacturer's method, four plasmids, pcDNA3.1(+)/CD122 (constructed by Nanjing Novoacine Biotechnology Co., Ltd, Uniprot P14784 1Met-551Val was constructed into plasmid pcDNA3.1(+)), pcDNA3.1/puro/CD132 (constructed by Nanjing Novoacine Biotechnology Co., Ltd, Uniprot P31785 1Met-551Thr was constructed into plasmid pcDNA3.1/zeo), pCMV/JAK3 (Sino Biological), and PGL4.52/STAT5RE (Promega) were transiently transfected into 293EC18 cells using a cationic transfection reagent (ExFect Transfection Reagent, Vazyme). The obtained cells were named 293EC18/βγ/JAK3/STAT5 cells. Alternatively, five plasmids, pcDNA3.1/zeo/CD25 (constructed by Nanjing Novoacine Biotechnology Co., Ltd, Uniprot P01589 1Met-551Ile constructed into plasmid pcDNA3.1/zeo), pcDNA3.1(+)/CD122 (constructed by Nanjing Novoacine Biotechnology Co., Ltd, Uniprot P14784 1Met-551Val constructed into plasmid pcDNA3.1(+)), pcDNA3.1/puro/CD132 (constructed by Nanjing Novoacine Biotechnology Co., Ltd, UniprotP31785 1Met-551Thr constructed into plasmid pcDNA3.1/zeo), pCMV/JAK3 (Sino Biological), and PGL4.52/STAT5RE (Promega) were transiently transferred into 293EC18 cells, and the obtained cells were named 293EC18/αβγ/JAK3/STAT5 cells. The transfected cells were incubated at 37°C and 5% CO2 for another 6 h.
Each IL2 mutant was diluted 4-fold in a gradient manner using PBS buffer, with a total of 11 dilutions and a starting concentration of 65.2 nM. In the above cell culture plates, 50 µl/well of each of the serially diluted IL2 mutant samples was added in duplicate. Then, the cell culture plate was placed in an incubator at 37°C and 5% CO2 for overnight culture. The cell culture plates were kept at room temperature for 20 ± 5 minutes to equilibrate the plates to room temperature. Bio-Lite Luciferase Assay System reagents that have been mixed and equilibrated to room temperature were added to the cell culture plates to be tested at 100 µl/well, placed on a microplate shaker at 450 rpm to mix for 2 minutes, then allowed to stand at room temperature for 3 minutes, and the chemiluminescence value was detected with an enzyme plate reader.
The logarithm of the final concentration of each IL-2 mutant sample was used as the X-axis, and the chemiluminescence detection results were used as the Y-axis for plotting. Data were analyzed using the four-parameter logistic regression model in GraphPad Prism 9. Table 2 EC50 values for the activation of the IL-2αβγ triple receptor by PEG-IL-2 mutants as determined by a reporter gene assay.
According to the method of Example 3, each polyethylene glycol-modified mutant obtained in this example was assessed for the binding preference to the IL2 receptors by a reporter assay. Table 4 EC50 values for the activation of the IL-2αβγ triple receptor by PEG-IL-2 mutants as determined by a reporter gene assay.
Referring to Example 3, the phosphorylation of STAT5 was used to evaluate the ability of the PEG-modified IL-2 mutants having a non-natural amino acid mutation prepared in Example 14 to induce signal transduction via the IL-2 receptor. […]

activation effect on the IL-2Rβγ dual receptor compared with control IL-2 N88R | Molecule
lower activation effects | 80k-1PEG-IL2-N88R-S75C: IL-2 mutant N88R, S75C with one 80k PEG conjugated to cysteine 75 (conjugate) APTSSSTKKTQLQLEHLLLDLQMILNGINNYKNPKLTRMLTFKFYMPKKATELKHLQCLEEELKPLEEVLNLAQC(PEG 80 kDa)KNFHLRPRDLISRINVIVLELKGSETTFMCEYADETATIVEFLNRWITFSQSIISTLT

Same assay, conditions: Figure 2, all concentrations

activation effect on / affinity to IL-2Rβγ dual receptor compared with control IL-2 N88R | Molecule
further reduced the affinity to IL-2Rβγ | 80k-1PEG-IL2-N88R-S75C: IL-2 mutant N88R, S75C with one 80k PEG conjugated to cysteine 75 (conjugate) APTSSSTKKTQLQLEHLLLDLQMILNGINNYKNPKLTRMLTFKFYMPKKATELKHLQCLEEELKPLEEVLNLAQC(PEG 80 kDa)KNFHLRPRDLISRINVIVLELKGSETTFMCEYADETATIVEFLNRWITFSQSIISTLT
